Measurements taken from patent US12351833B2, “Unspecific peroxygenase enzyme variants for selective fatty acid epoxidation or hydroxylation” (CONSEJO SUPERIOR DE INVESTIGACIONES CIENTÍFICAS (CSIC), priority 2019, dated 2025).

B1: rMroUPO: recombinant Marasmius rotula unspecific peroxygenase, SEQ ID NO: 1, encoded by SEQ ID NO: 9, expressed in E. coli (protein)
chain: SAHPWKAPGPNDSRGPCPGLNTLANHGFLPRNGRNISVPMIVKAGFEGYNVQSDILILAGKIGMLTSREADTISLEDLKLHGTIEHDASLSREDVAIGDNLHFNEAIFTTLANSNPGADVYNISSAAQVQHDRLADSLARNPNVTNTDLTATIRSSESAFFLTVMSAGDPLRGEAPKKFVNVFFREERMPIKEGWKRSTTPITIPLLGPIIERITELSDWKPTGDNCGAIVLSPEL
modifications: Recombinant Marasmius rotula unspecific peroxygenase enzyme, rMroUPO
B2: rMroUPO I153F/S156F mutated variant: rMroUPO in which isoleucine 153 and serine 156 were both replaced by phenylalanine (SEQ ID NO: 3) (protein)
chain: SAHPWKAPGPNDSRGPCPGLNTLANHGFLPRNGRNISVPMIVKAGFEGYNVQSDILILAGKIGMLTSREADTISLEDLKLHGTIEHDASLSREDVAIGDNLHFNEAIFTTLANSNPGADVYNISSAAQVQHDRLADSLARNPNVTNTDLTATFRSFESAFFLTVMSAGDPLRGEAPKKFVNVFFREERMPIKEGWKRSTTPITIPLLGPIIERITELSDWKPTGDNCGAIVLSPEL
modifications: Variant of the invention which comprises the SEQ ID NO 1 and the amino acid substitutions I153F and S156F
B3: rMroUPO I153T mutated variant: rMroUPO in which isoleucine 153 was replaced by threonine (SEQ ID NO: 2) (protein)
chain: SAHPWKAPGPNDSRGPCPGLNTLANHGFLPRNGRNISVPMIVKAGFEGYNVQSDILILAGKIGMLTSREADTISLEDLKLHGTIEHDASLSREDVAIGDNLHFNEAIFTTLANSNPGADVYNISSAAQVQHDRLADSLARNPNVTNTDLTATTRSSESAFFLTVMSAGDPLRGEAPKKFVNVFFREERMPIKEGWKRSTTPITIPLLGPIIERITELSDWKPTGDNCGAIVLSPEL
modifications: Variant of the invention which comprises the SEQ ID NO 1 and the amino acid substitution I153T

Tests used:
Assay type in all cases: biochemical
[1] = Reaction of UPO enzyme with oleic acid and H2O2, products analysed by GC-MS; conditions: for Conversion of the substrate (oleic acid) into products / selectivity towards only epoxidation (ratio between only epoxides and other oxygenation products) / share of products that are only epoxides / share of products that are other (hydroxylated) epoxides / epoxidation activity / epoxidized species detected (words): enzyme 0.2 μM, oleic acid 100 μM, H2O2 2,500 μM; for Conversion of the substrate (oleic acid) into products: 30° C., 50 mM phosphate pH 5.5, 30 min, 20% acetone; for selectivity towards only epoxidation (ratio between only epoxides and other oxygenation products) / share of products that are only epoxides / share of products that are other (hydroxylated) epoxides / epoxidation activity / epoxidized species detected (words): pH 5.5, 30° C., 30 min
Protocol: The rMroUPO (0.2 μM) was incubated with oleic acid (100 μM) and H2O2 (2,500 μM) at 30° C. in 50 mM phosphate, pH 5.5, for 30 min. Oleic acid had been previously dissolved in acetone so that the final acetone concentration attained 20% (v/v) in the embodiment. After the incubation time, the products were recovered by liquid-liquid extraction with t-butyl-methyl-ether. The organic solvent was removed under N2 current. N,O-Bis-(trimethylsilyl)trifluoroacetamide was employed to prepare the trimethylsilyl derivatives of the compounds to be separated by gas chromatography and identified by mass spectrometry.
(§1) Chromatographic analyses were carried out in a gas chromatograph coupled to a mass-spectrometry detector. The column used was a fused-silica DB-5HT capillary column (30 m×0.25 mm internal diameter×0.1 μm film thickness). Oven was heated from 120° C. (1 min) to 300° C. (5 min) at 5° C.·min. Injection was performed at 300° C. and transfer line was maintained at 300° C. Compounds were identified by comparison of their mass spectra with those of authentic standards and those from the NIST and Wiley libraries as well as by mass fragmentography. Quantification of the products was carried out by integrating the total ion peak areas, using external standard curves of the same or closely related compounds.
Reactions with oleic acid and identification and quantification of the products were conducted as explained in Example 3.
The rMroUPO I153F/S156F mutated variant (SEQ ID NO: 3), in which isoleucine 153 and serine 156 were both replaced by phenylalanine residues, was constructed by site-directed mutagenesis, in a PCR reaction in which the following oligos—complementary to the region of the gene to be mutated, but bearing the desired mismatches—were used as primers: 5′-[…]-3′ (SEQ ID NO: 8), along with its reverse complementary counterpart. PCR reaction and sequencing of the mutated variant were carried out as described in Example 4. Expression, purification of the enzyme, reactions with oleic acid and GC-MS identification and quantification of the products were conducted as in Example 3.

[2] = Reaction of UPO enzyme with linoleic acid and H2O2, products analysed by GC-MS; conditions: for Conversion of linoleic acid / selectivity towards only epoxidation (ratio between only epoxides and other oxygenation products) / share of products that are hydroxylated epoxides / share of products that are only epoxides: enzyme 0.6 μM, linoleic acid 100 μM, H2O2 1,250 μM; for Conversion of linoleic acid: 30° C., 50 mM phosphate pH 5.5, 30 min, 20% acetone; for selectivity towards only epoxidation (ratio between only epoxides and other oxygenation products) / share of products that are hydroxylated epoxides / share of products that are only epoxides: pH 5.5, 30° C., 30 min
Protocol: as §1
An embodiment was designed in which rMroUPO (0.6 μM) was incubated with linoleic acid (100 μM, previously dissolved in acetone so that the final acetone concentration in the embodiment was of 20%) and H2O2 (1,250 μM) at 30° C. in 50 mM phosphate, pH 5.5, for 30 min. Identification and quantification of the products was conducted as detailed in Example 3.
Reactions were performed as in Example 6. Identification and quantification of the products is described in Example 3.

[3] = Reaction of UPO enzyme with α-linolenic acid and H2O2, products analysed by GC-MS; conditions: for Conversion of α-linolenic acid: 30° C., 50 mM phosphate pH 5.5, 30 min
Protocol: as §1
Reactions were performed in an embodiment consisting of rMroUPO (0.2 μM), incubated with α-linolenic acid (100 μM) and H2O2 (1,250 μM) at 30° C., in 50 mM phosphate, pH 5.5, for 30 min. Extraction and separation of the reaction products was carried out as described in Example 3. Since no available commercial standards of epoxidized α-linolenic acid were available, they were chemically synthesised as follows: a solution of peracetic acid (1.8 mmol, 3.6 equiv) and NaOAc (0.7 mmol; 1.4 equiv) was added to α-linolenic acid (0.5 mmol) using a syringe pump at 0° C. for 1 h. The mixture was stirred at 0° C. for an additional h. Products were recovered by liquid-liquid extraction with t-butyl-methyl-ether, resulting in a mixture of mono- and di-epoxides. Identification of the compounds was made by comparison of the mass spectra with those of the synthesised standards and by mass fragmentography. Quantification was carried out as detailed in Example 3.
Reactions and analyses of the products were performed as in Example 8. FIG. 7 illustrates a chromatogram of the reaction products, among which single epoxides, di-epoxides and other epoxidized derivatives. Conversion of the substrate attained 97%, of which 92% (of which 88% are di-epoxides) represented only epoxides and a mere 8% other epoxide derivatives. Therefore, the selectivity towards only epoxidation reached 11.50.

[4] = enzyme 0.2 μM, α-linolenic acid 100 μM, H2O2 1,250 μM
[5] = α-linolenic acid 100 μM, enzyme 0.2 μM, H2O2 1,250 μM, pH 5.5, 30° C., 30 min

Row | Molecule | Conversion of the substrate (oleic acid) into products [1] [%] | selectivity towards only epoxidation (ratio between only epoxides and other oxygenation products) [1] | share of products that are only epoxides [1] [%] | share of products that are other (hydroxylated) epoxides [1] [%] | Conversion of linoleic acid [2] [%] | selectivity towards only epoxidation (ratio between only epoxides and other oxygenation products) [2] | share of products that are hydroxylated epoxides [2] [%] | share of products that are only epoxides [2] [%] | Conversion of α-linolenic acid [3, 4] [%] | selectivity towards only epoxidation (ratio between only epoxides and other oxygenation products) [3, 5] | share of products that are only epoxides [3, 5] [%] | share of products that are other epoxides / other epoxide derivatives [3, 5] [%] | further results
1 | B1 | 94 | 0.67 | 40 | 57 | 98 | 0.27 | 79 | 21 | 98 | 0.79 | 44 | 56 | 
2 | B2 |  |  |  |  |  |  |  |  |  |  |  |  | epoxidation activity / epoxidized species detected (words) ([1]; listed as I153F/S156F mutated variant): completely abolishes the epoxidation activity; epoxidation activity / epoxidized species detected (words) ([1]; listed as I153F/S156F variant): completely abolished the MroUPO ability to epoxidize oleic acid; epoxidation activity / epoxidized species detected (words) ([1]; listed as MroUPO I153F/S156F mutated variant): No traces of epoxidized species were detected; selectivity towards hydroxylation ([1]; oleic acid, products restricted to ω-1 and ω hydroxylated, keto and carboxylic species): total towards hydroxylation
3 | B3 | 85 | 2.67 | 72 | 17 | 93 | 0.72 | 58 | 42 | 97 | 11.50 | 92 | 8 | increase of epoxidation selectivity relative to rMroUPO ([1]; oleic acid): 4 fold; ratio between stearic acid epoxide and its additionally hydroxylated derivatives (words, vs MroUPO) ([1]; oleic acid): increased; increase of epoxidation selectivity relative to rMroUPO ([2]; linoleic acid): 2.7 fold; increase of epoxidation selectivity relative to rMroUPO ([3]; α-linolenic acid): 14.6 fold; share of di-epoxides among only epoxides [3, 5]: 88%
